B1: Lys_H4 (designed binder)
chain: GSVKVKFFWNGEEKEVDTSKIVWVKRAGKCVLFIYDDNGKNGYGDVTEKDAPKELLDMLARAEREKKL
B2: Lys_B3 (designed binder)
chain: GSVKVKFDLCGEEKEVDTSKIVYVARDGKTVLFMYDDNGKSGRGEVSEKDAPKELLDMLARAEREKKL
B3: Lys_H8 (designed binder)
chain: GSVKVKFVMCGEEKEVDTSKIITVKRTGKEVDFLYDDNGKNGYGTVYEKDAPKELLDMLARAEREKKL

Molecular target: T1, lysozyme (Gallus gallus (Chicken), UniProt P00698 19-147)
T1 construct: also called Lysozyme (14.3 kDa)
Assay: Biacore, preliminary data

T1 sequence (P00698 19-147 limits assumed, form in doubt): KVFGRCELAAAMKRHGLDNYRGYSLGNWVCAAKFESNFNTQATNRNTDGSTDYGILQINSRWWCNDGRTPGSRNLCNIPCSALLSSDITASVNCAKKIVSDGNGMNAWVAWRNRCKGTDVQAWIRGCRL

Compared with B1, B2 is 5-fold higher in Kd: about 3 nM for the first, about 15 nM for the second.

Binder B3 has a Kd of about 25 nM.

From patent publication US20100145008A1 (published 2010)
